According to patent WO2020259667A1 (dated 2020):
Blank lines part the entries; values can stand above or below the binder they belong to.

Experiments:
[1] = target: T1, human OX40 on Jurkat-NF-Kb luc-hOX40 cells (human, UniProt P43489 29-277); experiment: cell-based or functional assay
T1 sequence (looked up): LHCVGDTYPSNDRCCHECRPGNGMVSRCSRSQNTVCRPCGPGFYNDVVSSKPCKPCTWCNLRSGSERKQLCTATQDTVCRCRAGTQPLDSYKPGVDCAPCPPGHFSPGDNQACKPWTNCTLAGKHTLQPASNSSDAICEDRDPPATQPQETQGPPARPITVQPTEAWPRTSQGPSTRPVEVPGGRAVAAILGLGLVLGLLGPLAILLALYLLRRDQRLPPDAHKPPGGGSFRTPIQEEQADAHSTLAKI

[2] = target: T2, human OX40-His protein (Sino Biological 10481-H08H) (human, UniProt P43489 29-216); experiment: SPR, Biacore T200; antibody amine-coupled to a CM5 chip, human OX40-His as analyte, 1:1 Langmuir model
T2 construct: Bought protein, used as the analyte in Biacore; not shown: His tag
T2 sequence (looked up): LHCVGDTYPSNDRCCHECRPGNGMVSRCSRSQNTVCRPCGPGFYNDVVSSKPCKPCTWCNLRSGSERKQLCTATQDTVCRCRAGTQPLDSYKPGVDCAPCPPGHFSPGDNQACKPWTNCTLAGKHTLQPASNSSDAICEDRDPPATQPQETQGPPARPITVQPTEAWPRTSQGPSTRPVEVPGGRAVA

[3] = target: T3, human OX40-Fc, biotin-labelled (OX40 Leu 29-Ala 216, Accession NP_003318, fused with Fc); Acro Biosystems … (human, UniProt P43489 29-216, labelled with biotin (sites not given)); experiment: blocking ELISA: OX40 ligand coated on the plate, serially diluted 2G3 pre-incubated with biotinylated human OX40-Fc, SA-HRP detection; competitor OX40L
T3 construct: range 29-216; Bought from Acro Biosystems and expressed in HEK293; also called human Bio-OX40-FC; not shown: Fc tag of the bought protein
T3 sequence (looked up): T2 sequence (looked up)

[4] = target: human OX40 on Jurkat-NF-Kb luc-hOX40 cells (human) (UniProt P43489); experiment: cell-based or functional assay

EC50(nM), luciferase reporter gene (RLU) in Jurkat-NF-Kb luc-hOX40 cells mixed with Raji cells on an anti-CD3 coated plate [1]: 2.29 nM
Kd [2]: 4.63 nM
koff [2]: 0.00202 s⁻¹
kon [2]: 437000 M⁻¹ s⁻¹
IC50 [3]: 1.88 nM
B1: 2G3 (humanized anti-OX40 antibody, hu2G3 VH1.1 + hu2G3 VL1) (antibody, human IgG1, kappa, V domains shown)
VH: QVQLQESGPGLVKPSETLSLTCTVSGYSISRYSVHWVRQPPGKGLEWIGMIWDGGNTDYNAALKSRFTISRDNAKNTLYLQMNSLRAEDTAVYYCARNPLYFSYAMDYWGQGTLVTVSS
VL: DIQMTQSPSSLSASVGDRVTITCRASQDISNYLNWYQQKPDQSPKLLIIYTSRLQSGVPSRFSGSGSGTDYTLTISSLQPEDFATYYCQQVNTFPFTFGQGTKLEIKR
notes: Format is IgG1/kappa; also called drug A; humanized 2G3 antibody

EC50(nM), luciferase reporter gene (RLU) in Jurkat-NF-Kb luc-hOX40 cells mixed with Raji cells on an anti-CD3 coated plate [4]: 0.637 nM
B2: chimeric antibody Ch2G3 (m2G3 variable regions with human IgG1 and human Kappa constant regions) (antibody, from another filing, V domains shown)
VH: QVQLKESGPGLVASSQSLSITCTVSGFSLSRYSVHWVRQPPGKGLEWLGMIWDGGNTDYNSALKSRLSISKDNSKSQVFLKMNSLQTDDTAMYYCARNPLYFSYAMDYWGQGTSVTVSS
VL: DIQMTQSTSSLSASLGDRVTISCRASQDISNYLNWYQQKPDGTVKLLIIYTSRLQSGVPSRFSGSGSGTDYSLTISNLEQEDIATYFCQQVNTFPFTFGSGTKLEIK
